B1: G-CSF: recombinant human granulocyte colony stimulating factor (Amgen), cytokine (protein, UniProt P09919 31-207, looked up)
Granulocyte …: TPLGPASSLPQSFLLKCLEQVRKIQGDGAALQEKLVSECATYKLCHPEELVLLGHSLGIPWAPLSSCPSQALQLAGCLSQLHSGLFLYQGLLQALEGISPELGPTLDTLQLDVADFATTIWQQMEELGMAPALQPTQGAMPAFASAFQRRAGGVLVASHLQSFLEVSYRVLRHLAQP

Assays:
CD15 = CD15 expression by flow cytometry after G-CSF treatment with or without DANA; type: cell-based, human; conditions: for expression of CD15: 10 ng/ml G-CSF, 72 hr
Method: Bone marrow cells were treated with 10 ng/mL of G-CSF for 5 days in the presence or absence of 100 mM DANA and expression of CD15 was analyzed by flow cytometry.
(§1) Aliquots of ˜2-5×10^5 cells were washed with PBS, 2% FBS and incubated with primary mAbs. Subsequently, the cells were washed and incubated with species and isotype matched FITC- or PE-labeled polyclonal antibodies. Following this incubation, the cells were washed and FITC or PE fluorescence of cells was determined using a Cytomics FC 500 MPL flow cytometer (Beckman Coulter Inc., Fullerton, Calif.).
(§2) Freshly isolated BM cells were separated into early immature (Band 1), late immature (Band 2) and mature (Band 3) myeloid fractions.

Fuct-IX = test: FucT-IX expression after in vitro G-CSF treatment; type: cell-based, human; conditions: normal progenitors and mobilized peripheral blood, 10 ng/ml G-CSF, 72 hr
From the text: Lane 1 are normal cells isolated from bone marrow from healthy donor. Lane 2 are G-CSF treated normal progenitors isolated from bone marrow from healthy donor. Lane 3 are untreated cells isolated from G-CSF mobilized blood. Lane 4 are G-CSF treated cells isolated from G-CSF mobilized blood.
CD15 plays a role in innate immunity in priming dendritic cells. Moreover, FTIX fucosylates internal lactosamine units yielding the VIM-2 epitope. While, the VIM-2 is not sLex, but it consists of a terminal sialic acid with an “internal fucosylation” that can function as an E-selectin ligand

endothelial E-selectin = test: Parallel plate flow chamber adhesion of G-CSF-treated Band 2 cells on stimulated HUVEC; type: cell-based, human; conditions: 72 hr G-CSF, 1.5 dyne/cm^2, IL-1β-stimulated HUVEC
From the text: FIGS. 12A-B illustrates G-CSF treatment enhances the capability of human BM cells to adhere to endothelial E-selectin under physiologic flow conditions. HUVEC were stimulated with IL-1β for 4-6 hrs. Subsequently, untreated or 72 hr. G-CSF-treated Band 2 cells were perfused over HUVEC at 1.5 dyne/cm^2. In certain instances, stimulated HUVEC were pretreated with a mAb to E-selectin prior to use in adhesion assays. […]
(§3) A tissue culture dish containing confluent HUVEC monolayer or CHO cells was loaded into a parallel plate flow chamber (Glycotech; Gaithersburg, Md.). […] Primary tethering^49 was determined by quantifying the number of ML or NL that attached (i.e., interacted) from the free stream directly onto HUVEC monolayer or CHO cells during the first 2 minutes of flow. Secondary attachments (i.e., flowing leukocytes interacting with an already adherent leukocyte on HUVEC monolayer or CHO cells) or leukocytes that rolled into the field of observation from the upstream region were not counted. Average rolling velocity, a quantitative measure of selectin binding strength, was computed (using Scion Image) as the displacement by the centroid of the cell divided by the time interval of observation, 5 sec.

L-selectin = test: Flow cytometry of L-selectin on G-CSF-treated BM cells; type: cell-based, human; conditions: in vitro, 10 ng/ml G-CSF, 72 hr
Method: as §1

[1] = system: E-selectin ligands on circulating leukocytes; test: Clinical collections of leukocytes mobilized by G-CSF administration (ML); type: in vivo, human
From the text: Materials: G-CSF mobilized peripheral blood (MPB) was obtained from pheresis products of donors for clinical HSCT at Brigham and Women's Hospital/Dana Farber Cancer Institute (Boston, Mass.). G-CSF MPB leukocytes (ML) were isolated from buffy coat of dextran sedimentated whole blood, followed by hypotonic lysis to remove contaminating red cells. Mononuclear fraction of these cells (ML-M) was isolated by Ficoll-Hypaque (1.077 g/ml; Sigma Aldrich) density gradient centrifugation. Native (unmobilized) peripheral blood was obtained from consenting healthy volunteers, and NL (buffy coat) were isolated using dextran sedimentation as for ML. Peripheral blood mononuclear cells (PBMC) were isolated by Ficoll-Hypaque density gradient centrifugation. Polymorphonuclear leukocytes (PMN) were isolated by dextran sedimentation followed by collecting the cell pellet after Ficoll-Hypaque density gradient centrifugation. Contaminated red cells were removed by hypotonic lysis.
as §3, with “sec. […]” for “sec.”
Aliquots of ˜2-5×10^5 cells were washed with PBS, 2% FBS and incubated with primary mAbs. […] Following this incubation, the cells were washed and FITC or PE fluorescence of cells was determined using a Cytomics FC 500 MPL flow cytometer (Beckman Coulter Inc., Fullerton, Calif.).

[2] = system: ST3GalIV, FucT-IV and FucT-VII; test: RT-PCR of glycosyltransferases in G-CSF-treated Band 2 BM cells; type: cell-based; conditions: immature human BM cells (Band 2), 10 ng/ml G-CSF, 72 hr
From the text: ID NO:1) and antisense [NT] NO:2); FucT-VII, sense [NT] ID NO:3) and antisense [NT] ID NO:4); FucT-IV, sense […] NO:5) and antisense […] NO:6); GAPDH sense [NT] ID NO:8) and antisense [NT] ID NO:9).

sialidase = test: Sialidase expression/activity after G-CSF treatment of human myeloid cells; type: cell-based
From the text: as §2

[3] = system: Hcell and HECA-452-reactive ˜65 kDa glycoprotein on human BM cells; test: In vitro G-CSF treatment of human BM cells, HECA-452 and E-Ig Western blots; type: cell-based
Method: Normal human bone marrow (BM) cells were isolated from human BM harvest material (Massachusetts General Hospital, Boston, Mass.). Red cells were separated using dextran sedimentation method. The leukocyte-rich supernatant was subjected to a two-step discontinuous Percoll (Amersham Pharmacia Biotech; Piscataway, N.J.) density gradient centrifugation (1.065 g/ml and 1.080 g/ml; 1000 g for 20 min at 4° C.). […] The cells with least density found at the upper band (“Band 1”) contained early immature cells (myeloblasts and promyelocytes), “Band 2” contained late immature cells (primarily myelocytes and metamyelocytes), and “Band 3” contained the most mature leukocytes (predominantly band and segmented neutrophils) as well as some contaminating red cells, which were subsequently removed by hypotonic lysis. The cells in different bands were collected, washed and used for further studies. In some instances, BM mononuclear cells (BM-MNC) were isolated by Ficoll-Hypaque density gradient centrifugation. CD34+/lineage—subpopulation was isolated from BM-MNC using a negative cell selection StemSep™ human progenitor enrichment cocktail (Stem Cell Technologies Inc.); CD34+ cells were then further isolated by positive selection using anti-CD34 immunomagnetic beads (Miltenyi Biotech.), routinely resulting in populations of >98% CD34+ cells.
Membrane proteins of purified ML-M, ML-G, PMN, or PBMC were isolated as described previously^28,39. Membrane protein suspensions were aliquoted and stored at −20° C. For SDS-PAGE and Western blotting, membrane preparations were diluted in reducing sample buffer, boiled and then separated on 4-20% or 7.5% Criterion Tris-HCl SDS-PAGE gels (Bio-Rad Laboratories). Resolved membrane proteins were transferred to Sequi-blot polyvinylidene diflouride (PVDF) membrane (Bio-Rad Laboratories) and blocked with heat inactivated FBS. Blots were incubated with primary antibodies or E-Ig (each at 1 μg/ml). Appropriate isotype control immunoblots (each at 1 μg/ml) were performed in parallel to evaluate nonspecific binding to protein bands. […]

[4] = multiple clinical ML collections, G-CSF administration

Molecule	G-CSF-induced increase in CD15 under sialidase inhibition (CD15; bone marrow cells, 10 ng/mL G-CSF for 5 days, 100 mM DANA, flow cytometry)	G-CSF-induced increase of CD15 under sialidase inhibition (CD15; late mature bone marrow and leukocytes, G-CSF-treated)	Fuct-IX expression (Fuct-IX)	E-selectin binding (primary tethering, rolling velocity on stimulated HUVEC) (endothelial E-selectin)	L-selectin expression on G-CSF treated cells relative to untreated cells (L-selectin)	expression of CD15 (CD15; early immature bone marrow)	expression of CD15 (CD15; late mature bone marrow and leukocytes)	surface L-selectin expression on circulating leukocytes ([1]; following G-CSF administration, flow cytometry)	E-selectin ligand activity of circulating leukocytes [1, 4]	expression of the E-selectin ligands HCELL and the HECA-452-reactive ˜65 kDa glycoprotein [1, 4]	expression levels of ST3GalIV, FucT-IV and FucT-VII [2]	expression of sialidase (sialidase; bone marrow and leukocytes, 10 ng/ml G-CSF, 72 hr)	sialidase activity (sialidase; human myeloid bone marrow cells, 10 ng/mL G-CSF, 24 hours, 4-MU-NANA substrate)	expression of Hcell and the HECA-452-reactive ˜65 kDa glycoprotein ([3]; 10 ng/ml G-CSF, 72 hr, 37° C., predominantly immature Band 1 and Band 2 human BM cells)	HCELL induction on lymphocytes ([3]; lymphocytes in BM or in blood)	inducing HCELL expression among mature myeloid BM cells ([3]; mature myeloid BM cells)
CC(=O)N[C@H]1[C@H]([C@H](O)[C@H](O)CO)OC(C(=O)O)=C[C@@H]1O [DANA, 2-deoxy-2,3-dehydro-N-acetyl-neuraminic acid, reference compound]	blunts G-CSF-induced increase in CD15	could be prevented														
B1			increases Fuct-IX expression	enhanced E-selectin binding	down-regulation of L-selectin expression	did not has an effect	increased expression of CD15	marked decrease in surface L-selectin expression	uniformly increased E-selectin ligand activity	upregulated the expression	increases in expression levels	increase expression of sialidase	increases sialidase activity	up-regulation in expression	not induced	only a variable effect
